The numbers were not newly measured in paper PMC7563123, which cites them from elsewhere.

pKd: −log10 of the molar value.

Series [1] deals with Aβ1–40 Aβ1-40 (Homo sapiens) (UniProt P05067). Nature of the series: ligand binding assay.
For series [2], the target named is Aβ1–42 Aβ1-42 (Homo sapiens) (UniProt P05067). The series is described as follows: ligand binding assay.
Aβ1–42 Aβ1-42 (Homo sapiens), sequence (P05067 1-42): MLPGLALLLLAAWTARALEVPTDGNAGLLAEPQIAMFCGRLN

17β-HSD10, sequence (Q99714 2-261): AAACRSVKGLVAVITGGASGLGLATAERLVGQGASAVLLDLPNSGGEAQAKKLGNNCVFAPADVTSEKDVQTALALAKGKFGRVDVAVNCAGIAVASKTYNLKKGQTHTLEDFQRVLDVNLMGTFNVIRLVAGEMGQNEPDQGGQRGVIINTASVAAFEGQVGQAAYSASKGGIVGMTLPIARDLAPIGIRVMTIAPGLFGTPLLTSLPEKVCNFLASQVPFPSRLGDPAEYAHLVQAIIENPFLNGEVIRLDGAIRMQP
Aβ1–40 Aβ1-40 (Homo sapiens), sequence (P05067 1-40): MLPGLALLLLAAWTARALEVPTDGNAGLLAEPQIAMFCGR

The term pKd denotes −log10 of the Kd, conventionally taken in molar units. As to 17β-HSD10 (from UniProt Q99714), the figures for the pKd in series [1] and in series [2] were 7.42 and 7.25, respectively.
